Results as given in US20220160842A1, “METHOD OF TREATING INFECTIVE ENDOCARDITIS” (priority 2019, published 2022).

What was measured:
[1] = test system: S. sanguinis; assay: MIC by broth microdilution; assay type: cell-based, Streptococcus sanguinis; conditions: S. sanguinis (viridans), N=15
Description: (§1) Minimal inhibitory concentrations (MICs) of exebacase against staphylococci were determined by broth microdilution (BMD) using a nonstandard antimicrobial susceptibility testing (AST) medium comprised of cation-adjusted Mueller Hinton broth (caMHB) supplemented with horse serum (Sigma Aldrich) and dithiothreitol (DTT; Sigma Aldrich) to final concentrations of 25% and 0.5 mM, respectively. This medium, referred to as caMHB-HSD, is approved for use in exebacase AST by the Clinical and Laboratory Standards Institute (CLSI) (CLSI. 2017, Jan. 16-17. AST Subcommittee Working Group Meetings and Plenary. AST Meeting Files & Resources, clsi.org/education/microbiology/ast/ast-meeting-files-resources/. Additional supplementation with 2.5% lysed red blood cells (Remel™, ThermoFisher) was included for analyses of streptococcal isolates, as recommended by CLSI. See CLSI, 2015. Methods for Dilution Antimicrobial Susceptibility Tests for Bacteria That Grow Aerobically, 10th Edition. Clinical and Laboratory Standards Institute, Wayne, Pa.
(§2) Daptomycin (Sigma Aldrich) and vancomycin hydrochloride (Sigma Aldrich) were tested following the reference BMD method for each. See CLSI. 2015. Methods for Dilution Antimicrobial Susceptibility Tests for Bacteria That Grow Aerobically, 10th Edition. Clinical and Laboratory Standards Institute, Wayne, Pa.

[2] = test system: S. mutans; assay: MIC by broth microdilution; assay type: cell-based, Streptococcus mutans; conditions: S. mutans (viridans), N=22
Description: as §1, §2

[3] = test system: S. salivarius; assay: MIC by broth microdilution; assay type: cell-based, Streptococcus salivarius; conditions: S. salivarius (viridans), N=12
Description: as §1, §2

[4] = test system: MRSA strain MW2; assay: Infective endocarditis rabbit model, CF-301 in series with daptomycin (Example 2); assay type: in vivo, rabbits
Description: The rational for selection of the daptomycin dose is as follows. Daptomycin pilot dose-response experiments were performed over a range from 1 mg/kg to 10 mg/kg, administered intravenously, once daily for 4 days in the infective endocarditis rabbit model described below, which was caused by the MRSA strain, MW2. FIG. 2 depicts data for individual animals, plotted as treatment regimen versus log10 CFU/g tissue (mean±SEM are shown). From these studies, a daptomycin dose-response was defined. […] In the rabbit infective endocarditis model, a daptomycin-alone dose of 4 mg/kg administered intravenously provided about 0.25 to 1.45 log10 reduction in bacterial burden compared to vehicle-treated controls.
A well-described indwelling transcarotid artery-to-left ventricle catheter-induced model of aortic valve infective endocarditis was used in rabbits. See Xiong et al., 2011, AAC, 55:P5325-5330. At 48 hours after catheter placement, infective endocarditis was induced by intravenous inoculums of about 2×10^5 CFU (the induction of ID95 of MRSA strain MW2 in this model). […] Daptomycin administration was continued once a day for 4 days. At 24 hours after the last dose of daptomycin, animals were humanely euthanized and cardiac vegetations, kidneys, and spleens were sterilely removed and quantitatively cultured. Bacterial density for each organ for the different treatment groups were calculated as mean log10 CFU/g of tissue (±95% confidence interval).

[5] = test system: MRSA strain MW2 (CA-MRSA; USA400); conditions: cited from earlier work
[6] = test system: MRSA strain MW2; assay: Left-sided catheter-induced IE model due to MRSA, CF-301 dose strategies plus DAP (Example 4); assay type: in vivo, rabbits; conditions: all CF-301 doses given in addition to DAP
Description: Briefly, female New Zealand White rabbits (Harlan Laboratories; 2.3 to 2.5 kg body weight) underwent transcarotid-transaortic valve catheterization, and IE was induced by IV infection of ˜1-2×10^5 cfu of MW2 at 48 hours (h) after catheterization. […] See also FIG. 4.
On day 5, animals were sacrificed, and target tissues (cardiac vegetations, kidney and spleen) were removed and quantitatively cultured. Tissue MRSA counts are given as the mean log10 CFU/g of tissue±SD).
A two-tailed Student's t test was used to analyze the tissue MRSA counts between different groups. P values <0.05 were considered significant. No adjustment was made for all the P values reported in this study.

[7] = test system: S. haemolyticus; assay: MIC by broth microdilution; assay type: cell-based, Staphylococcus haemolyticus; conditions: S. haemolyticus, N=36
Description: as §1, §2

[8] = test system: S. dysgalactiae; assay: MIC by broth microdilution; assay type: cell-based, Streptococcus dysgalactiae; conditions: S. dysgalactiae (group G), N=22
Description: as §1, §2

[9] = test system: S. lugdunensis; assay: MIC by broth microdilution; assay type: cell-based, Staphylococcus lugdunensis; conditions: S. lugdunensis, N=49
Description: as §1, §2

[10] = test system: S. agalactiae; assay: MIC by broth microdilution; assay type: cell-based, Streptococcus agalactiae; conditions: S. agalactiae (group B), N=97
Description: as §1, §2

[11] = test system: E. faecalis; assay: MIC by broth microdilution; assay type: cell-based, Enterococcus faecalis; conditions: E. faecalis (formerly group D), N=18
Description: as §1, §2

[12] = test system: S. aureus (MRSA); assay: MIC by broth microdilution; assay type: cell-based, Staphylococcus aureus; conditions: S. aureus (MRSA), N=74
Description: as §1, §2

[13] = test system: S. aureus (MSSA); assay: MIC by broth microdilution; assay type: cell-based, Staphylococcus aureus; conditions: S. aureus (MSSA), N=73
Description: as §1, §2

[14] = test system: S. mitis; assay: MIC by broth microdilution; assay type: cell-based, Streptococcus mitis; conditions: S. mitis (viridans), N=18
Description: as §1, §2

[15] = test system: S. pneumoniae; assay: MIC by broth microdilution; assay type: cell-based, Streptococcus pneumoniae; conditions: S. pneumoniae, N=59
Description: as §1, §2

[16] = CF-301 0.09 mg/kg 1 hour prior to the initial dose of DAP 4 mg/kg IV QD x 4 days
[17] = CF-301 0.09 mg/kg 2 hours after the initial dose of DAP 4 mg/kg IV QD x 4 days
[18] = CF-301 0.09 mg/kg 2 hours prior to the initial dose of DAP 4 mg/kg IV QD x 4 days
[19] = CF-301 0.09 mg/kg 4 hours after the initial dose of DAP 4 mg/kg IV QD x 4 days
[20] = CF-301 0.09 mg/kg 4 hours prior to the initial dose of DAP 4 mg/kg IV QD x 4 days
[21] = CF-301 0.09 mg/kg immediately after the initial dose of DAP 4 mg/kg IV QD x 4 days

B1: CF-301: anti-staphylococcal lysin encoded within a prophage of the Streptococcus suis genome, SEQ ID NO: 2 with or without initial methionine (protein, listed as Streptococcus suis)
chain: MTTVNEALNNVRAQVGSGVSVGNGECYALASWYERMISPDATVGLGAGVGWVSGAIGDTISAKNIGSSYNWQANGWTVSTSGPFKAGQIVTLGATPGNPYGHVVIVEAVDGDRLTILEQNYGGKRYPVRNYYSAASYRQQVVHYITPPGTVAQSAPNLAGSRSYRETGTMTVTVDALNVRRAPNTSGEIVAVYKRGESFDYDTVIIDVNGYVWVSYIGGSGKRNYVATGATKDGKRFGNAWGTFK
- MIC50 [1]: 4 µg/mL
- MIC90 [1]: 16 µg/mL
- MIC Range [1]: 2 to 32 µg/mL
- MIC50 [2]: 32 µg/mL
- MIC90 [2]: 64 µg/mL
- MIC50 [3]: 2 µg/mL
- MIC90 [3]: 8 µg/mL
- MIC Range [3]: 0.5 to 8 µg/mL
- MRSA density, Mean Log10 CFU/g tissue ± STD, Kidneys [4, 16]: 3.53 ± 0.59 Log10 CFU/g tissue
- MRSA density, Mean Log10 CFU/g tissue ± STD, Spleen [4, 16]: 3.55 ± 0.74 Log10 CFU/g tissue
- MRSA density, Mean Log10 CFU/g tissue ± STD, Vegetation [4, 16]: 4.16 ± 0.82 Log10 CFU/g tissue
- MRSA density, Mean Log10 CFU/g tissue ± STD, Kidneys [4, 17]: 2.29 ± 0.87 Log10 CFU/g tissue
- MRSA density, Mean Log10 CFU/g tissue ± STD, Spleen [4, 17]: 2.23 ± 1.09 Log10 CFU/g tissue
- MRSA density, Mean Log10 CFU/g tissue ± STD, Vegetation [4, 17]: 2.25 ± 1.39 Log10 CFU/g tissue
- MRSA density, Mean Log10 CFU/g tissue ± STD, Kidneys [4, 18]: 3.48 ± 0.47 Log10 CFU/g tissue
- MRSA density, Mean Log10 CFU/g tissue ± STD, Spleen [4, 18]: 3.31 ± 0.57 Log10 CFU/g tissue
- MRSA density, Mean Log10 CFU/g tissue ± STD, Vegetation [4, 18]: 3.54 ± 0.68 Log10 CFU/g tissue
- MRSA density, Mean Log10 CFU/g tissue ± STD, Kidneys [4, 19]: 3.78 ± 0.51 Log10 CFU/g tissue
- MRSA density, Mean Log10 CFU/g tissue ± STD, Spleen [4, 19]: 3.49 ± 0.33 Log10 CFU/g tissue
- MRSA density, Mean Log10 CFU/g tissue ± STD, Vegetation [4, 19]: 4.31 ± 0.89 Log10 CFU/g tissue
- MRSA density, Mean Log10 CFU/g tissue ± STD, Kidneys [4, 20]: 2.97 ± 0.32 Log10 CFU/g tissue
- MRSA density, Mean Log10 CFU/g tissue ± STD, Spleen [4, 20]: 3.18 ± 0.35 Log10 CFU/g tissue
- MRSA density, Mean Log10 CFU/g tissue ± STD, Vegetation [4, 20]: 3.45 ± 0.63 Log10 CFU/g tissue
- MRSA density, Mean Log10 CFU/g tissue ± STD, Kidneys [4, 21]: 2.77 ± 0.65 Log10 CFU/g tissue
- MRSA density, Mean Log10 CFU/g tissue ± STD, Spleen [4, 21]: 2.60 ± 0.17 Log10 CFU/g tissue
- MRSA density, Mean Log10 CFU/g tissue ± STD, Vegetation [4, 21]: 3.23 ± 0.36 Log10 CFU/g tissue
- MRSA densities in all three target tissues as compared to the controls and daptomycin alone ([4]; single dose of CF-301 added to daptomycin regimen, all time-points tested): significantly reduced
- MIC [5]: 1.0 µg/mL
- further reduction of MRSA densities in all target tissues vs DAP alone [6]: about 3 log10 cfu/g
- reduction of MRSA densities in all target tissues vs vehicle control groups [6]: about 6 log10 cfu/g
- MIC50 [7]: 0.5 µg/mL
- MIC90 [7]: 1 µg/mL
- MIC Range [7]: 0.25 to 2 µg/mL
- MIC50 [8]: 1 µg/mL
- MIC90 [8]: 2 µg/mL
- MIC Range [8]: 1 to 2 µg/mL
- MIC50 [9]: 1 µg/mL
- MIC90 [9]: 1 µg/mL
- MIC Range [9]: 0.25 to 2 µg/mL
- MIC50 [10]: 1 µg/mL
- MIC90 [10]: 2 µg/mL
- MIC Range [10]: 0.25 to 4 µg/mL
- MIC50 [11]: 16 µg/mL
- MIC90 [11]: 64 µg/mL
- MIC Range [11]: 1 to 256 µg/mL
- MIC50 [12]: 0.5 µg/mL
- MIC90 [12]: 1 µg/mL
- MIC Range [12]: 0.5 to 2 µg/mL
- MIC50 [13]: 0.5 µg/mL
- MIC90 [13]: 0.5 µg/mL
- MIC Range [13]: 0.25 to 1 µg/mL
- MIC50 [14]: 2 µg/mL
- MIC90 [14]: 8 µg/mL
- MIC Range [14]: 0.5 to 64 µg/mL
- MIC50 [15]: 4 µg/mL
- MIC90 [15]: 32 µg/mL
- MIC Range [15]: 1 to 64 µg/mL
